Reference: patent US10138280B2, “Polypeptides targeting glycosylated MUC2 proteins, methods of synthesis, their nucleic acids and uses thereof” (INSTITUT PASTEUR, priority 2011, dated 2018)

What was measured:
[1] = target: T1, mucus of human colonic mucinous carcinomas (Muc2) (Homo sapiens, UniProt Q02817); experiment: Fluorescent staining of human colonic mucinous carcinoma samples
T1 construct: five different samples collected from patients diagnosed with colonic mucinous carcinomas; from tissue; host or cells: human colonic mucinous carcinoma samples, fixed, paraffin embedded
Description: FIGS. 24A-24B. Comparative human colonic mucus staining using MUB70-Cy5 on healthy tissues and mucinous carcinomas (Coic et al, JBC, 2012 (41)). Fluorescent staining of human colonic mucus was performed by the addition of 1 μg/mL of the corresponding Cy5-conjugated peptides with Phalloidin-RRX (1:100) on formol fixed, paraffin embedded samples. Image acquisition was performed using a fluorescent confocal microscope (see Methods).
Ex vivo human colon samples were obtained from Dr. E. Labruyère (Institut Pasteur) and tissue processing was performed as described previously and stored in serum free RMPI media (surgical procedure is described herein). Human mucinous carcinoma formamide fixed samples were obtained from Dr. T. Lazure (Hôpitaux Universitaires Paris-Sud, Kremlin-Bicêtre) and Pr. I. Sobhani (Hôpital Henri Mondor, Créteil). Rabbit colon and ileum samples were collected on naïve New Zealand white rabbits weighting 2.5-3 kg and fixed in PFA 3%. […]
As colonic mucinous carcinomas are characterized by abnormal overproduction of Muc2 in the colon mucosa (40), the inventors have hypothesized that Cy5-MUB70 could be used as a novel fluorescent marker for the diagnosis of this pathology. […] As shown previously on a healthy colon (FIG. 3B), the luminal mucus secreted fraction is detected by Cy5-MUB70 (FIG. 24A, top panel). […]

[2] = tested on: mouse colonic mucus; experiment: Mucus staining on fixed tissues, mouse colon; details: fixed tissue, 1 μg/mL
Description: FIGS. 11A-11C. Mucus staining using Cy5-MUB70 on fixed tissues. (FIG. 11A) Guinea pig colon, (FIG. 11B) rabbit ileum and (FIG. 11C) mouse colon were fixed in PFA 4%. Immunofluorescent staining was performed using Cy5-MUB70 (1 μg/mL) (blue). Actin is stained in red (Phall.-RRX), Muc2 is stained in green (α-Muc2). Observations were performed using a confocal microscope. Bar is 50 μm.
Ex vivo human colon samples were obtained from Dr. E. Labruyère (Institut Pasteur) and tissue processing was performed as described previously and stored in serum free RMPI media (surgical procedure is described herein). Human mucinous carcinoma formamide fixed samples were obtained from Dr. T. Lazure (Hôpitaux Universitaires Paris-Sud, Kremlin-Bicêtre) and Pr. I. Sobhani (Hôpital Henri Mondor, Créteil). Rabbit colon and ileum samples were collected on naïve New Zealand white rabbits weighting 2.5-3 kg and fixed in PFA 3%. Same procedure was applied on intestine samples collected on guinea pigs (Charles River) and C57/B6 mice (Janvier).
Following PFA 4% or Carnoy fixation, as indicated, samples were washed in PBS, incubated at 4° C. in PBS containing 12% sucrose for 90 min, then in PBS with 18% sucrose overnight, and frozen in OCT (Sakura) on dry ice. 7 μm sections were obtained using a cryostat CM-3050 (Leica). […]

[3] = target: T2, human colonic mucus (Muc2) (Homo sapiens, UniProt Q02817); experiment: Immunofluorescent staining of human mucus and fixed human colon samples; details: human colon mucus from ex vivo samples and fixed purified human mucus
T2 construct: Segments of human colon (ascending, descending and sigmoid colon) were obtained from fully informed patients undergoing surgery; from tissue; host or cells: healthy human colon segments (live explants, mucus collected from them, Carnoy- or formol-fixed sections)
Excerpt: FIGS. 4A-4B. Cy5-MUB70 is specifically binding to the glycosylated moiety of Muc2 secreted in the colon mucus layer. (FIG. 4A) Immunodetection of Muc2, Muc5ac, Muc5b and Muc6 (dotblot analysis) on human mucus extracts eluted after a pulldown assay performed with biot-MUB70 on avidin conjugated beads (see Methods). Biotin is used as a negative control. Immunodetection of Muc2 (dotblot analysis) on deglycosylated mucus extracts eluted after a pulldown assay performed with biot-MUB70 on avidin conjugated beads. Non-deglycosylated mucus extract is used as a positive control. (FIG. 4B) Co-localization of Muc2 (green) and Cy5-MUB (blue) observed on fixed (Carnoy) human colon samples. Actin is stained in red (Phall.RRX). Observations are performed using a confocal microscope. Bars is 20 μm.
FIGS. 9A-9B. (FIG. 9A) Co-localization of Muc2 (green) and Cy5-MUB (blue) performed by immunofluorescent detection on human mucus extract collected on ex vivo tissues using an epifluorescent microscope. Bar is 50 μm. […]
For immunofluorescence assay mouse α-MUC2 pAbs (Santa Cruz sc-15334) was diluted 1:1000 and FITC-conjugated rabbit anti-mouse was diluted 1:2000. Host cells were detected with DAPI (nuclei, […]) or using Phalloidin-Rhodamine red X (RRX)-conjugated donkey anti-mouse antibodies (Jackson Immunoresearch Antibodies) as an actin marker (stained red); both were used at a final dilution of 1:1000. […]

colocalization with Muc2 in colonic mucinous carcinomas ([1]; mucus accumulation within the colonic mucosa, associated with tumor cells): colocalizes with the presence of Muc2
B1: Cy5-MUB70: Cy5-labelled MUB70 polypeptide, labelled via Cy5 maleimide on N-terminal cysteine (conjugate)
peptide: CVHVQYIDGETDQMLRQDDLDGYTDETIPYSTAEGIKKFEGDGYELFKDNFPAGEKFDNDDTNDQFYTVIF
staining of colonic mucinous carcinoma samples ([1]; five samples from patients, 1 μg/mL): specific staining was observed within the mucus accumulation areas
colonic mucus staining [2]: not stained
colocalization with Muc2 [3]: colocalization detection of Muc2 and Cy5-MUB70
